US20250002610A1 (Genmab, published 2025)
Numbering of substitutions follows the chain as printed.

T1: cynomolgus monkey FAPα on Expi293F cells (cynomolgus monkey (Macaca fascicularis), UniProt Q12884 1-760 (human entry))
T1 sequence: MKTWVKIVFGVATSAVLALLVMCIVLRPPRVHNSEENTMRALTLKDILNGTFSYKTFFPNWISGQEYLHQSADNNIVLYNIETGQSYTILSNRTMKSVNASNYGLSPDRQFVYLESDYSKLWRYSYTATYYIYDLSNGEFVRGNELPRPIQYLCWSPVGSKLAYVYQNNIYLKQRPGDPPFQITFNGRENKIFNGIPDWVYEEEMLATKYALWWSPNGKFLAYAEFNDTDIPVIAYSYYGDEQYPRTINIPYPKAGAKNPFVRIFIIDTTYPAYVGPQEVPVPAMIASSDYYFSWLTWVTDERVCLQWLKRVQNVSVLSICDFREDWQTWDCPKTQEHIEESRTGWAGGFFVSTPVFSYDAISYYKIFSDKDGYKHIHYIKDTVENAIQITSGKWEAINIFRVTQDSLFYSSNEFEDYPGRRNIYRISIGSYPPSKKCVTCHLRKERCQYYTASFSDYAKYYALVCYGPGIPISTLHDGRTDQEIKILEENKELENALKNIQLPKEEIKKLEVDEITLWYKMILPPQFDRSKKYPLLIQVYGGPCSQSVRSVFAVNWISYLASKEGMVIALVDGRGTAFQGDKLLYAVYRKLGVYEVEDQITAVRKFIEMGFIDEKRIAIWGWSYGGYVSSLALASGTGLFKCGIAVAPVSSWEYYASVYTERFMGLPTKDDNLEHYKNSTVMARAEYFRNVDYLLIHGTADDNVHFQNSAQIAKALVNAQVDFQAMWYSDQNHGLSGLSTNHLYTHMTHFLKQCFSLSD

T2: human DR4 (Death Receptor 4), cell surface expressed on human tumor cell lines (human, UniProt O00220 24-468)
T2 construct: also called TNFRSF10A; TRAIL-R1
T2 sequence: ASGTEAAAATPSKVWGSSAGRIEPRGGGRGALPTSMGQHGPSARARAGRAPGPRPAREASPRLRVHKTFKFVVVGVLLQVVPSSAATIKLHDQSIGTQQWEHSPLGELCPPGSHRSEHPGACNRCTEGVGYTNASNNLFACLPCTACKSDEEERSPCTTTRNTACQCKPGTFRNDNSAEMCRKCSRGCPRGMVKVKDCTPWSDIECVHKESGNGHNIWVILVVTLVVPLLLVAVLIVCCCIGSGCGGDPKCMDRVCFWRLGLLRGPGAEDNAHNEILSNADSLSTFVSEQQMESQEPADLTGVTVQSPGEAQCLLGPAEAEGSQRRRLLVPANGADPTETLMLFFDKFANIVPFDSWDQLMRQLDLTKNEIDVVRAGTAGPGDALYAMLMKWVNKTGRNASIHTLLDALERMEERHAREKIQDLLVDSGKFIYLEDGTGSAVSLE

B1: BisG1-FAPα-FEAL/b12-FEAR (bispecific antibody, human IgG1, kappa)
heavy 1: EVQLLESGGGLVQPGGSPRLSCEASGFTFSSYALSWVRQAPGKGLEWVSAISGSGGGRYYADSVKGRFTISRDNSKNTLFLQMNSLRAEDTAVYYCAKEGYSSSGTYWDHWGQGTLVTVSSASTKGPSVFPLAPSSKSTSGGTAALGCLVKDYFPEPVTVSWNSGALTSGVHTFPAVLQSSGLYSLSSVVTVPSSSLGTQTYICNVNHKPSNTKVDKRVEPKSCDKTHTCPPCPAPEFEGGPSVFLFPPKPKDTLMISRTPEVTCVVVAVSHEDPEVKFNWYVDGVEVHNAKTKPREEQYNSTYRVVSVLTVLHQDWLNGKEYKCKVSNKALPAPIEKTISKAKGQPREPQVYTLPPSREEMTKNQVSLTCLVKGFYPSDIAVEWESNGQPENNYKTTPPVLDSDGSFLLYSKLTVDKSRWQQGNVFSCSVMHEALHNHYTQKSLSLSPG
light 1: AIQMTQSPSSVSASVGDRVTITCRASQGVSSWLAWYQQKPGRAPKLLIYVASTLQSGVPSRFSGSGSGTDFTLTINSLQPEDFATYYCQQANSFPPTFGQGTRLEMKRTVAAPSVFIFPPSDEQLKSGTASVVCLLNNFYPREAKVQWKVDNALQSGNSQESVTEQDSKDSTYSLSSTLTLSKADYEKHKVYACEVTHQGLSSPVTKSFNRGEC
heavy 2: QVQLVQSGAEVKKPGASVKVSCQASGYRFSNFVIHWVRQAPGQRFEWMGWINPYNGNKEFSAKFQDRVTFTADTSANTAYMELRSLRSADTAVYYCARVGPYSWDDSPQDNYYMDVWGKGTTVIVSSASTKGPSVFPLAPSSKSTSGGTAALGCLVKDYFPEPVTVSWNSGALTSGVHTFPAVLQSSGLYSLSSVVTVPSSSLGTQTYICNVNHKPSNTKVDKRVEPKSCDKTHTCPPCPAPEFEGGPSVFLFPPKPKDTLMISRTPEVTCVVVAVSHEDPEVKFNWYVDGVEVHNAKTKPREEQYNSTYRVVSVLTVLHQDWLNGKEYKCKVSNKALPAPIEKTISKAKGQPREPQVYTLPPSREEMTKNQVSLTCLVKGFYPSDIAVEWESNGQPENNYKTTPPVLDSDGSFFLYSRLTVDKSRWQQGNVFSCSVMHEALHNHYTQKSLSLSPG
light 2: EIVLTQSPGTLSLSPGERATFSCRSSHSIRSRRVAWYQHKPGQAPRLVIHGVSNRASGISDRFSGSGSGTDFTLTITRVEPEDFALYYCQVYGASSYTFGQGTKLERKRTVAAPSVFIFPPSDEQLKSGTASVVCLLNNFYPREAKVQWKVDNALQSGNSQESVTEQDSKDSTYSLSSTLTLSKADYEKHKVYACEVTHQGLSSPVTKSFNRGEC
notes: Fab-arm exchange of IgG1-FAPα-FEAL and IgG1-b12-FEAR
B2: IgG1-FAPα-FERL (antibody)
heavy: B1 heavy 1 with G240R, A269D
light: B1 light 1
notes: Bivalent monoclonal IgG1 kappa
B3: BisG1-b12-FERL/DR4-FERR (bispecific antibody, human IgG1, kappa, lambda)
heavy 1: B1 heavy 2 with G246R, A275D, F415L, R419K
light 1: B1 light 2
heavy 2: QVQLQESGPGLVKPSGTLSLTCAVSGGSISSYSWWSWIRQPPGKGLEWIGELYHSGSTNYNPSLKSRVTISVDKSKNQFSLKLRSVTAADTAVYYCVRGVATIDYWGQGTLVTVSSASTKGPSVFPLAPSSKSTSGGTAALGCLVKDYFPEPVTVSWNSGALTSGVHTFPAVLQSSGLYSLSSVVTVPSSSLGTQTYICNVNHKPSNTKVDKRVEPKSCDKTHTCPPCPAPEFERGPSVFLFPPKPKDTLMISRTPEVTCVVVDVSHEDPEVKFNWYVDGVEVHNAKTKPREEQYNSTYRVVSVLTVLHQDWLNGKEYKCKVSNKALPAPIEKTISKAKGQPREPQVYTLPPSREEMTKNQVSLTCLVKGFYPSDIAVEWESNGQPENNYKTTPPVLDSDGSFFLYSRLTVDKSRWQQGNVFSCSVMHEALHNHYTQKSLSLSPG
light 2: QSALTQPPSASGSPGQSVTISCTGTSSDVGGYNFVSWYQQDPGKAPKLLIYEVTKRPSGVPDRFSGSKSGNTASLTVSGLQAEDEADYYCSSYAGSNNVMFGGGTKLTVLGQPKAAPSVTLFPPSSEELQANKATLVCLISDFYPGAVTVAWKADSSPVKAGVETTTPSKQSNNKYAASSYLSLTPEQWKSHRSYSCQVTHEGSTVEKTVAPTECS
notes: Fab-arm exchange of IgG1-b12-FERL and IgG1-DR4-FERR; also called bsIgG1-ctrl-FERLxDR4-FERR
B4: IgG1-DR4-FERR (antibody, V domains shown)
VH: QVQLQESGPGLVKPSGTLSLTCAVSGGSISSYSWWSWIRQPPGKGLEWIGELYHSGSTNYNPSLKSRVTISVDKSKNQFSLKLRSVTAADTAVYYCVRGVATIDYWGQGTLVTVSS
VL: QSALTQPPSASGSPGQSVTISCTGTSSDVGGYNFVSWYQQDPGKAPKLLIYEVTKRPSGVPDRFSGSKSGNTASLTVSGLQAEDEADYYCSSYAGSNNVMFGGGTKLTVLG
notes: Bivalent monoclonal IgG1 lambda

Experiments:
[1] = target: T1, cynomolgus monkey FAPα on Expi293F cells; assay: flow cytometry, Expi293F cells expressing cynomolgus monkey FAPα, average ± SEM
Description: (§1) Binding of BisG1-FAPα-FERL/DR4-FERR, BisG1-FAPα-FEAL/b12-FEAR and IgG1-FAPα-FERL to FAPα of species commonly used for nonclinical toxicology studies was assessed by flow cytometry using Expi293F cells transiently expressing FAPα from different animal species. IgG1-b12 was included as negative control.
(§2) Expi293F cells expressing recombinant FAPα from various species (human, cynomolgus monkey, dog, pig, rat or mouse) were seeded (20,000 cells/well) in 96-Well round bottom plates (Greiner Bio-one, Cat #650101). Antibody dilutions were prepared using FACS buffer, consisting of PBS (Capricorn Scientific, Cat #PBS-10XA, diluted to 1×PBS in distilled water)+1% BSA (Roche, Cat #10735086001)+0.02% Sodium Azide (Bio-World, Cat #41920044-3). Plates were centrifuged, supernatant was removed, and cells were resuspended in 100 μL of antibody dilutions (concentration range 30-0.00017 μg/mL with three-fold serial dilutions using FACS buffer) of BisG1-FAPα-FERL/DR4-FERR, BisG1-FAPα-FEAL/b12-FEAR, IgG1-FAPα-FERL and IgG1-b12 and incubated for 30 min at 4° C. […] After 30 min incubation at 4° C., cells were washed with FACS buffer and resuspended in FACS buffer supplemented with TO-PRO-3 Iodide viability marker (Invitrogen, Cat #T3605, diluted 1:4,000). Antibody binding to viable cells (gMFI of PE on TO-PRO-3 negative cells) was analyzed by flow cytometry on a FACS Celesta and FACS_Diva software (first two experiments) or iQue® 3 and FlowJo software (last experiment). gMFI was determined and visualized using GraphPad Prism. Binding curves were analyzed using nonlinear regression analysis. The concentration (pg/mL) at which 50% of the maximal effect was observed (EC₅₀) was derived from the fitted curves.

[2] = target: T1, cynomolgus monkey FAPα on Expi293F cells; assay: flow cytometry, Expi293F cells expressing cynomolgus monkey FAPα, n = 1
Description: as §1, §2

[3] = target: T2, human DR4 (Death Receptor 4), cell …; assay: flow cytometry, MDA-MB-231 cells, average ± SEM
[4] = target: T2, human DR4 (Death Receptor 4), cell …; assay: flow cytometry, PANC-1 cells, n = 3
[5] = target: T2, human DR4 (Death Receptor 4), cell …; assay: flow cytometry, DLD-1 cells, n = 2
[6] = target: T2, human DR4 (Death Receptor 4), cell …; assay: flow cytometry, PANC-1 cells, n = 2
[7] = target: T2, human DR4 (Death Receptor 4), cell …; assay: flow cytometry, PANC-1 cells, n = 1

Binder | EC50 [1] [µg/mL] | EC50 [2] [µg/mL] | EC50 [3] [µg/mL] | EC50 [4] [µg/mL] | EC50 [5] [µg/mL] | EC50 [6] [µg/mL] | EC50 [7] [µg/mL]
B1 | 0.19 | 0.05 | – | – | – | – | –
B2 | 0.1 | 0.03 | – | – | – | – | –
B3 | – | – | 1.02 | 1.44 | 0.68 | 2.12 | 1.35
B4 | – | – | 0.32 | 0.39 | 0.22 | 0.4 | 0.68
